Our source for the Kd values is PMC6393709.

In this assay the target is PARP1 (protein used in the SPRi assay) (UniProt P09874). Kind of assay: SPR; SPRi on a PlexArray HT (V3), 25°C, 1x PBS pH 7.4.
Chain of UniProt P09874 (P09874 whole entry): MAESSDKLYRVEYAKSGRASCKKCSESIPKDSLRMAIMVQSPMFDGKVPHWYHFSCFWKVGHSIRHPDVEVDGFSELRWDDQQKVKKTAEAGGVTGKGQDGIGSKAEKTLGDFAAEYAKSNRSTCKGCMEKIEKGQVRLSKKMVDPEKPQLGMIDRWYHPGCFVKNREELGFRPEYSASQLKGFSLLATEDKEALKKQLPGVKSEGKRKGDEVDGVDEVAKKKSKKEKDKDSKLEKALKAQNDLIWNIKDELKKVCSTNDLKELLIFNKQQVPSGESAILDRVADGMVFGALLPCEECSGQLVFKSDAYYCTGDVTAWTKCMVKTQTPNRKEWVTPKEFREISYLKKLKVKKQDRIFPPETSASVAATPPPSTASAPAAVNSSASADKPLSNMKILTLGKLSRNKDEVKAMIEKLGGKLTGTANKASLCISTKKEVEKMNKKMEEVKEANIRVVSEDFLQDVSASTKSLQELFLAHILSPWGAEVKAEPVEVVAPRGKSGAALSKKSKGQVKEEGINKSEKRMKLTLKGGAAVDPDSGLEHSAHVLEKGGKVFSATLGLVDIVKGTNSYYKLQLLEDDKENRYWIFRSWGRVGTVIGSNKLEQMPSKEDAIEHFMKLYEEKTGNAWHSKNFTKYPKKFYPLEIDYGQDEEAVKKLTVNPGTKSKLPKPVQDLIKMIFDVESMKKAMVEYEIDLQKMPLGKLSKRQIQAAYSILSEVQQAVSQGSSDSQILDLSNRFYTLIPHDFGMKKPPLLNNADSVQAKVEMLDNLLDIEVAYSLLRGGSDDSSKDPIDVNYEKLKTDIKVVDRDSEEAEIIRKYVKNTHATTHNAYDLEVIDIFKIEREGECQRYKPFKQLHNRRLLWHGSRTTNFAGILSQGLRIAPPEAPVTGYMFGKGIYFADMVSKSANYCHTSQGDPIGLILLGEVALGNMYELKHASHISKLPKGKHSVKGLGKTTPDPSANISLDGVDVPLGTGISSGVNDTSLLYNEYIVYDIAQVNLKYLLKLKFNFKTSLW

“F-actin domain of ABL1 (domain or fragment)” came in with a Kd of 13.6 nM.

Broadly, the Kd is the free concentration of one partner at which half of the binding sites on the other are occupied at equilibrium, for simple one-to-one binding.
